In the supplement of paper PMC7877785:
± gives the uncertainty stated by the source.

Assay: self-splicing fitness, log relative to wild type (ln ratio); higher = more splicing; Tetrahymena group I intron in knt gene, E. coli kanamycin selection, DiMSum; sequences stand for … in CUCUCU…GGAGGGAAAAGUUAUCAGGCAUGCACCUGGUAGCUAGUCUUUAAACCAAUAGAUUGCAUCGGUUUAAAAGGCAAGACCGUCAAAUUGCGGGAAAGGGGUCAACAGCCGUUCAGUACCAAGUCUCAGGGGAAACUUUGAGAUGGCCUUGCAAAGGGUAUGGUAAUAAGCUGACGGACAUGGUCCUAACCACGCAGCCAAGUCCUAAGUCAACAGAUCUUCUGUUGAUAUGGAUGCAGUUCACAGACUAAAUGUCGGUCGGGGAAGAUGUAUUCUUCUCAUAAGAUAUAGUCGGACCUCUCCUUAAUGGGAGCUAGCGGAUGAAGUGAUGCAACACUGGAGCCGCUGGGAACUAAUUUGUAUGCGAAAGUAUAUUGAUUAGUUUUGGAGUACUCGUGGUCG
Procedure, shortened: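 Pooled colonies went to amplicon sequencing on an Illumina HiSeq 2500 after six replicate transformations. The plates were LB agar with 100 μg/mL carbenicillin, 50 μM IPTG and 0.2% rhamnose, with or without 25 μg/mL kanamycin, incubated overnight at 37°C or 30°C. The E. coli BL21(DE3) library had all eight P1ex-region intron nucleotides randomised, the intron placed in the knt kanamycin-resistance gene on pET-22b(+). DiMSum fitness is the error-weighted combination of replicate fold changes, kanamycin against none, normalised to wild type.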

Sequence | self-splicing fitness (ln) (30 °C) | self-splicing fitness (ln) (37 °C)
AAGUAGCAAUAUUACGGUGA | -1.03 ± 0.11 | -0.771 ± 0.14
UCUAAGCAAUAUUACGUAGC | -2.23 ± 0.19 | -1.25 ± 0.2
GUAGAGCAAUAUUACGUGGA |  | -3.25 ± 0.3
UUAGAGCAAUAUUACGUAUC | -3.29 ± 0.48 | -1.22 ± 0.34
AGGCAGCAAUAUUACGGUCG | -0.147 ± 0.079 | -0.266 ± 0.1
UAAAAGCAAUAUUACGCUUU | -3.78 ± 0.23 | -2.52 ± 0.3
ACACAGCAAUAUUACGGUUU | -1.05 ± 0.04 | -0.00178 ± 0.06
GCCAAGCAAUAUUACGGACU | -1.16 ± 0.077 | -0.389 ± 0.1
UCCCAGCAAUAUUACGCGUA | -0.178 ± 0.066 | 0.0254 ± 0.079
GCUCAGCAAUAUUACGACAG | -3.53 ± 0.21 | -2.28 ± 0.22
CACUAGCAAUAUUACGAAUC | -3.91 ± 0.19 | -2.58 ± 0.22
UGAUAGCAAUAUUACGAAUA | -3.62 ± 0.47 | -0.595 ± 0.2
UCAUAGCAAUAUUACGACAU | -4.005 ± 0.032 | -2.92 ± 0.042
ACAGAGCAAUAUUACGCCCG | -3.2 ± 0.21 | -1.63 ± 0.18
UGACAGCAAUAUUACGGUAC | -4.6 ± 0.36 | -2.85 ± 0.38
CCAAAGCAAUAUUACGUGAC | -4.61 ± 0.32 | -2.12 ± 0.26
AGACAGCAAUAUUACGCAGA | -2.56 ± 0.27 | -1.38 ± 0.2
UCACAGCAAUAUUACGACGU | -3.44 ± 0.16 | -3.53 ± 0.26
UUGCAGCAAUAUUACGGUUC | -4.6 ± 0.27 | -1.67 ± 0.18

Sequence | self-splicing fitness (ln) (30 °C) | self-splicing fitness (ln) (37 °C)
UAUGAGCAAUAUUACGGAGC | -1.38 ± 0.36 | 
GACUAGCAAUAUUACGCGCG | 0.097 ± 0.11 | -0.349 ± 0.11
GGAUAGCAAUAUUACGGCGG | -1.95 ± 0.14 | -0.444 ± 0.13
CACGAGCAAUAUUACGGCCU | -4.34 ± 0.36 | -3.06 ± 0.3
CGCCAGCAAUAUUACGUACA | -2.74 ± 0.2 | -0.166 ± 0.17
CACCAGCAAUAUUACGACUG | -0.642 ± 0.054 | 0.144 ± 0.073
AUAUAGCAAUAUUACGUAGU | -2.39 ± 0.14 | -0.774 ± 0.14
AGCCAGCAAUAUUACGGAAC | -2.72 ± 0.18 | -3.1 ± 0.3
GACUAGCAAUAUUACGAGUA | -0.991 ± 0.067 | -0.253 ± 0.069
ACUGAGCAAUAUUACGAUUU | -1.12 ± 0.082 | -0.446 ± 0.12
AGGAAGCAAUAUUACGAGUG | -2.62 ± 0.13 | -1.8 ± 0.14
CUCAAGCAAUAUUACGCUAG | -4.26 ± 0.32 | -2.35 ± 0.14
UCGUAGCAAUAUUACGCAUA | -1.57 ± 0.16 | -1.34 ± 0.21
GCCGAGCAAUAUUACGGAUA | -1.68 ± 0.14 | -0.192 ± 0.13
CGGAAGCAAUAUUACGCUGG | -1.62 ± 0.11 | -1.15 ± 0.17
UUUAAGCAAUAUUACGGCGG | -0.0601 ± 0.13 | -0.212 ± 0.18
CACUAGCAAUAUUACGAUAG | -0.974 ± 0.1 | -0.493 ± 0.11
UCCAAGCAAUAUUACGGGCG | -1.05 ± 0.073 | -0.839 ± 0.085
AGUCAGCAAUAUUACGCCAG | -3.55 ± 0.34 | -2.47 ± 0.31
